± gives the uncertainty stated by the source.

This note sets out measurements from the supplement of paper PMC12458215.

The data set deals with HEK293T. The data set is described as follows: plasma membrane surface immunostaining intensity (anti-HA, deep receptor scanning) (arbitrary fluorescence units); higher = higher plasma membrane expression.

Regarding “MDNASFSEPWPANASGPDPALSCSNASTLAPLPAPLAVAVPVVYAVICAVGLAGNSAVLYVLLRAPRMKTVTNLFILNLAIADELFTLVLPINIADFLLRQWPFGELMCKLIVAIDQYNTFSSLYFLTVMSADRYLVVLATAESRRVAGRTYSAARAVSLAVWGIVTLVVLPFAVFARLDDEQGRRQCVLVFPQPEAFWWRASRLYTLVLGFAIPVSTICVLYTTLLCRLHAMRLDSHAKALERAKKRVTFLVVAILAVCLLCWTPYHLSTVVALTTDLPQTPLVIAISYFITSLSYANSCLNPFLYAFLDASFRRNLRQLITCRAAA [NPBWR1]”, the “plasma membrane surface immunostaining intensity” value (GPCR class: A) was determined as 3950 ± 330.

Consider “MDNITWMASHTGWSDFILMGLFRQSKHPMANITWMANHTGWSDFILLGLFRQSKHPALLCVVIFVVFLMALSGNAVLILLIHCDAHLHTPMYFFISQLSLMDMAYISVTVPKMLLDQVMGVNKISAPECGMQMFFYVTLAGSEFFLLATMAYDRYVAICHPLRYPVLMNHRVCLFLSSGCWFLGSVDGFTFTPITMTFPFRGSREIHHFFCEVPAVLNLSCSDTSLYEIFMYLCCVLMLLIPVVIISSSYLLILLTIHGMNSAEGRKKAFATCSSHLTVVILFYGAAIYTYMLPSSYHTPEKDMMVSVFYTILTPVVNPLIYSLRNKDVMGALKKMLTVEPAFQKAME [OR2T4]”, for which the “plasma membrane surface immunostaining intensity” value (GPCR class: A (Olfactory)) stood at 122 ± 21. On the same count and under the same terms, for “MDNLTKVTEFLLMEFSGIWELQVLHAGLFLLIYLAVLVGNLLIIAVITLDQHLHTPMYFFLKNLSVLDLCYISVTVPKSIRNSLTRRSSISYLGCVAQVYFFSAFASAELAFLTVMSYDRYVAICHPLQYRAVMTSGGCYQMAVTTWLSCFSYAAVHTGNMFREHVCRSSVIHQFFRDIPHVLALVSCEVFFVEFLTLALSSCLVLGCFILMMISYFQIFSTVLRIPSGQSRAKAFSTCSPQLIVIMLFLTTGLFAALGPIAKALSIQDLVIALTYTVLPPFLNPIIYSLRNKEIKTAMWRLFVKIYFLQK [OR14I1]” the value was 118 ± 14. As for “MDNVLPVDSDLSPNISTNTSEPNQFVQPAWQIVLWAAAYTVIVVTSVVGNVVVMWIILAHKRMRTVTNYFLVNLAFAEASMAAFNTVVNFTYAVHNEWYYGLFYCKFHNFFPIAAVFASIYSMTAVAFDRYMAIIHPLQPRLSATATKVVICVIWVLALLLAFPQGYYSTTETMPSRVVCMIEWPEHPNKIYEKVYHICVTVLIYFLPLLVIGYAYTVVGITLWASEIPGDSSDRYHEQVSAKRKVVKMMIVVVCTFAICWLPFHIFFLLPYINPDLYLKKFIQQVYLAIMWLAMSSTMYNPIIYCCLNDRFRLGFKHAFRCCPFISAGDYEGLEMKSTRYLQTQGSVYKVSRLETTISTVVGAHEEEPEDGPKATPSSLDLTSNCSSRSDSKTMTESFSFSSNVLS [TACR1]”, under “GPCR class: A”, the “plasma membrane surface immunostaining intensity” value was 6280 ± 110. As to “MDPEETSVYLDYYYATSPNSDIRETHSHVPYTSVFLPVFYTAVFLTGVLGNLVLMGALHFKPGSRRLIDIFIINLAASDFIFLVTLPLWVDKEASLGLWRTGSFLCKGSSYMISVNMHCSVLLLTCMSVDRYLAIVWPVVSRKFRRTDCAYVVCASIWFISCLLGLPTLLSRELTLIDDKPYCAEKKATPIKLIWSLVALIFTFFVPLLSIVTCYCCIARKLCAHYQQSGKHNKKLKKSIKIIFIVVAAFLVSWLPFNTFKFLAIVSGLRQEHYLPSAILQLGMEVSGPLAFANSCVNPFIYYIFDSYIRRAIVHCLCPCLKNYDFGSSTETSDSHLTKALSTFIHAEDFARRRKRSVSL [GPR15]”, the “plasma membrane surface immunostaining intensity” value (GPCR class: A) worked out at 342 ± 19. Still for that read-out and setting: for “MDPLNLSWYDDDLERQNWSRPFNGSDGKADRPHYNYYATLLTLLIAVIVFGNVLVCMAVSREKALQTTTNYLIVSLAVADLLVATLVMPWVVYLEVVGEWKFSRIHCDIFVTLDVMMCTASILNLCAISIDRYTAVAMPMLYNTRYSSKRRVTVMISIVWVLSFTISCPLLFGLNNADQNECIIANPAFVVYSSIVSFYVPFIVTLLVYIKIYIVLRRRRKRVNTKRSSRAFRAHLRAPLKGNCTHPEDMKLCTVIMKSNGSFPVNRRRVEAARRAQELEMEMLSSTSPPERTRYSPIPPSHHQLTLPDPSHHGLHSTPDSPAKPEKNGHAKDHPKIAKIFEIQTMPNGKTRTSLKTMSRRKLSQQKEKKATQMLAIVLGVFIICWLPFFITHILNIHCDCNIPPVLYSAFTWLGYVNSAVNPIIYTTFNIEFRKAFLKILHC [DRD2]” the value was 1950 ± 620; for “MDPTISTLDTELTPINGTEETLCYKQTLSLTVLTCIVSLVGLTGNAVVLWLLGCRMRRNAFSIYILNLAAADFLFLSGRLIYSLLSFISIPHTISKILYPVMMFSYFAGLSFLSAVSTERCLSVLWPIWYRCHRPTHLSAVVCVLLWALSLLRSILEWMLCGFLFSGADSAWCQTSDFITVAWLIFLCVVLCGSSLVLLIRILCGSRKIPLTRLYVTILLTVLVFLLCGLPFGIQFFLFLWIHVDREVLFCHVHLVSIFLSALNSSANPIIYFFVGSFRQRQNRQNLKLVLQRALQDASEVDEGGGQLPEEILELSGSRLEQ [MRGPRX1]”, 6278 ± 45; for “MDPTTPAWGTESTTVNGNDQALLLLCGKETLIPVFLILFIALVGLVGNGFVLWLLGFRMRRNAFSVYVLSLAGADFLFLCFQIINCLVYLSNFFCSISINFPSFFTTVMTCAYLAGLSMLSTVSTERCLSVLWPIWYRCRRPRHLSAVVCVLLWALSLLLSILEGKFCGFLFSDGDSGWCQTFDFITAAWLIFLFMVLCGSSLALLVRILCGSRGLPLTRLYLTILLTVLVFLLCGLPFGIQWFLILWIWKDSDVLFCHIHPVSVVLSSLNSSANPIIYFFVGSFRKQWRLQQPILKLALQRALQDIAEVDHSEGCFRQGTPEMSRSSLV [MRGPRX2]”, 359 ± 8.2. The same measure, in the same setting: for “MDQFPESVTENFEYDDLAEACYIGDIVVFGTVFLSIFYSVIFAIGLVGNLLVVFALTNSKKPKSVTDIYLLNLALSDLLFVATLPFWTHYLINEKGLHNAMCKFTTAFFFIGFFGSIFFITVISIDRYLAIVLAANSMNNRTVQHGVTISLGVWAAAILVAAPQFMFTKQKENECLGDYPEVLQEIWPVLRNVETNFLGFLLPLLIMSYCYFRIIQTLFSCKNHKKAKAIKLILLVVIVFFLFWTPYNVMIFLETLKLYDFFPSCDMRKDLRLALSVTETVAFSHCCLNPLIYAFAGEKFRRYLYHLYGKCLAVLCGRSVHVDFSSSESQRSRHGSVLSSNFTYHTSDGDALLLL [CX3CR1]” the value was 196 ± 34.

Take “MDRRMWGAHVFCVLSPLPTVLGHMHPECDFITQLREDESACLQAAEEMPNTTLGCPATWDGLLCWPTAGSGEWVTLPCPDFFSHFSSESGAVKRDCTITGWSEPFPPYPVACPVPLELLAEEESYFSTVKIIYTVGHSISIVALFVAITILVALRRLHCPRNYVHTQLFTTFILKAGAVFLKDAALFHSDDTDHCSFSTVLCKVSVAASHFATMTNFSWLLAEAVYLNCLLASTSPSSRRAFWWLVLAGWGLPVLFTGTWVSCKLAFEDIACWDLDDTSPYWWIIKGPIVLSVGVNFGLFLNIIRILVRKLEPAQGSLHTQSQYWRLSKSTLFLIPLFGIHYIIFNFLPDNAGLGIRLPLELGLGSFQGFIVAILYCFLNQEVRTEISRKWHGHDPELLPAWRTRAKWTTPSRSAAKVLTSMC [GHRHR]”: the “plasma membrane surface immunostaining intensity” value (GPCR class: B) came out at 108 ± 5.4. As to “MDSFNYTTPDYGHYDDKDTLDLNTPVDKTSNTLRVPDILALVIFAVVFLVGVLGNALVVWVTAFEAKRTINAIWFLNLAVADFLSCLALPILFTSIVQHHHWPFGGAACSILPSLILLNMYASILLLATISADRFLLVFKPIWCQNFRGAGLAWIACAVAWGLALLLTIPSFLYRVVREEYFPPKVLCGVDYSHDKRRERAVAIVRLVLGFLWPLLTLTICYTFILLRTWSRRATRSTKTLKVVVAVVASFFIFWLPYQVTGIMMSFLEPSSPTFLLLKKLDSLCVSFAYINCCINPIIYVVAGQGFQGRLRKSLPSLLRNVLTEESVVRESKSFTRSTVDTMAQKTQAV [C5AR1]”, the “plasma membrane surface immunostaining intensity” value (GPCR class: A) stood at 6196 ± 24. In the case of “MDSGPLWDANPTPRGTLSAPNATTPWLGRDEELAKVEIGVLATVLVLATGGNLAVLLTLGQLGRKRSRMHLFVLHLALTDLAVALFQVLPQLLWDITYRFQGPDLLCRAVKYLQVLSMFASTYMLLAMTLDRYLAVCHPLRSLQQPGQSTYLLIAAPWLLAAIFSLPQVFIFSLREVIQGSGVLDCWADFGFPWGPRAYLTWTTLAIFVLPVTMLTACYSLICHEICKNLKVKTQAWRVGGGGWRTWDRPSPSTLAATTRGLPSRVSSINTISRAKIRTVKMTFVIVLAYIACWAPFFSVQMWSVWDKNAPDEDSTNVAFTISMLLGNLNSCCNPWIYMGFNSHLLPRPLRHLACCGGPQPRMRRRLSDGSLSSRHTTLLTRSSCPATLSLSLSLTLSGRPRPEESPRDLELADGEGTAETIIF [AVPR1B]”, for the setting “GPCR class: A”, the “plasma membrane surface immunostaining intensity” value is 665 ± 110. The same measure, in the same setting: for “MDSTIPVLGTELTPINGREETPCYKQTLSFTGLTCIVSLVALTGNAVVLWLLGCRMRRNAVSIYILNLVAADFLFLSGHIICSPLRLINIRHPISKILSPVMTFPYFIGLSMLSAISTERCLSILWPIWYHCRRPRYLSSVMCVLLWALSLLRSILEWMFCDFLFSGANSVWCETSDFITIAWLVFLCVVLCGSSLVLLVRILCGSRKMPLTRLYVTILLTVLVFLLCGLPFGIQWALFSRIHLDWKVLFCHVHLVSIFLSALNSSANPIIYFFVGSFRQRQNRQNLKLVLQRALQDTPEVDEGGGWLPQETLELSGSRLEQ [MRGPRX3]” the value was 135 ± 14. Take “MDTGNWSQVAEFIILGFPHLQGVQIYLFLLLLLIYLMTVLGNLLIFLVVCLDSRLHTPMYHFVSILSFSELGYTAATIPKMLANLLSEKKTISFSGCLLQIYFFHSLGATECYLLTAMAYDRYLAICRPLHYPTLMTPTLCAEIAIGCWLGGLAGPVVEISLISRLPFCGPNRIQHVFCDFPPVLSLACTDTSINVLVDFVINSCKILATFLLILCSYVQIICTVLRIPSAAGKRKAISTCASHFTVVLIFYGSILSMYVQLKKSYSLDYDQALAVVYSVLTPFLNPFIYSLRNKEIKEAVRRQLKRIGILA [OR6N1]”: where the note is “GPCR class: A (Olfactory)”, the “plasma membrane surface immunostaining intensity” value is 347 ± 130. For the sequence “MDTGPDQSYFSGNHWFVFSVYLLTFLVGLPLNLLALVVFVGKLQRRPVAVDVLLLNLTASDLLLLLFLPFRMVEAANGMHWPLPFILCPLSGFIFFTTIYLTALFLAAVSIERFLSVAHPLWYKTRPRLGQAGLVSVACWLLASAHCSVVYVIEFSGDISHSQGTNGTCYLEFRKDQLAILLPVRLEMAVVLFVVPLIITSYCYSRLVWILGRGGSHRRQRRVAGLLAATLLNFLVCFGPYNVSHVVGYICGESPAWRIYVTLLSTLNSCVDPFVYYFSSSGFQADFHELLRRLCGLWGQWQQESSMELKEQKGGEEQRADRPAERKTSEHSQGCGTGGQVACAES [FFAR3]”, the “plasma membrane surface immunostaining intensity” value (GPCR class: A) came to 6440 ± 110. On the same count and under the same terms, for “MDTGPDQSYFSGNHWFVFSVYLLTFLVGLPLNLLALVVFVGKLRCRPVAVDVLLLNLTASDLLLLLFLPFRMVEAANGMHWPLPFILCPLSGFIFFTTIYLTALFLAAVSIERFLSVAHPLWYKTRPRLGQAGLVSVACWLLASAHCSVVYVIEFSGDISHSQGTNGTCYLEFRKDQLAILLPVRLEMAVVLFVVPLIITSYCYSRLVWILGRGGSHRRQRRVAGLVAATLLNFLVCFGPYNVSHVVGYICGESPVWRIYVTLLSTLNSCVDPFVYYFSSSGFQADFHELLRRLCGLWGQWQQESSMELKEQKGGEEQRADRPAERKTSEHSQGCGTGGQVACAEN [GPR42]” the value was 798 ± 40.
